We go through 84 variants from the RNAGym collection of RNA variant scans (doi:10.1073/pnas.2313332121).

Fewer inactive variants are shown than the library holds. Where only a bound is given, the exact number is not on record here.

B1: TPR 5TU (parent)
chain: GGAUCUUCUCGAUCUAACAAAAAAGACAAAUCUGCCACAAAGCUUGAGAGCAUCUUCGGAUGCAGAGGCGGCAGCCUUCGGUGGCGCGAUAGCGCCAACGUUCUCAACUAUGACACGCAAAACGCGUGCUCCGUUGAAUGGAGUUUAUCAUG

In the data set the parent is B1. The experiment in a line: polymerase ribozyme fitness, log enrichment relative to wild type (log ratio); higher = more active; in vitro selection for triplet polymerase activity. In short, it runs like this:
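Each subunit of a heterodimeric triplet polymerase ribozyme was mutagenized into a library by PCR, transcribed, and subjected to one round of in vitro selection, run in triplicate. Libraries were annealed with a biotinylated primer, the partner subunit and triplets, incubated frozen at −7 °C, and extended constructs were gel-excised, captured on streptavidin beads and recovered by RT-PCR. Input and output libraries were sequenced on Illumina, keeping genotypes with ≥10 input reads and ≥1 read per output. Fitness is log base 2 of genotype enrichment divided by wild-type enrichment, from inverse-variance-weighted replicate averages.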
As to A39C G42U C43A G92U U127A A150G, the “polymerase ribozyme fitness (log ratio)” value is -4.19.

On to A40C A47U A60U, for which the “polymerase ribozyme fitness (log ratio)” value was -1.07.

For A41G G70A C93U A98U, the “polymerase ribozyme fitness (log ratio)” value is -3.95.

As to A41G C103G, the “polymerase ribozyme fitness (log ratio)” value was -1.94.

On to A41C G62A G65C A89C C95G U151A, for which the “polymerase ribozyme fitness (log ratio)” value is at most -4.2.

Turning to A40G C51U U56A U78A G83C, the “polymerase ribozyme fitness (log ratio)” value was at most -4.2.

As to A40U C93U, the “polymerase ribozyme fitness (log ratio)” value was -0.794.

As to A41C C63G G86A A115C, the “polymerase ribozyme fitness (log ratio)” value is -2.61.

Take A41C C75U G92C A150U: the “polymerase ribozyme fitness (log ratio)” value was -2.91.

As for A39G G48A G59A C96U U102G G128C G141A U144G, the “polymerase ribozyme fitness (log ratio)” value is at most -4.2.

For the variant A39C A49U C69U C85A C105U, the “polymerase ribozyme fitness (log ratio)” value was at most -4.2.

Regarding A40C A52G, the “polymerase ribozyme fitness (log ratio)” value was 0.882.

Turning to A41G U53A G59C A98G U102C G133A, the “polymerase ribozyme fitness (log ratio)” value was at most -4.2.

On to A39C C76A U101G C114U C125G U145G, for which the “polymerase ribozyme fitness (log ratio)” value was -3.83.

Regarding C38U U61A, the “polymerase ribozyme fitness (log ratio)” value is -0.395.

A39C C54A G94A C123U U139A: the “polymerase ribozyme fitness (log ratio)” value was at most -4.2.

Regarding A40C G92A A97U, the “polymerase ribozyme fitness (log ratio)” value was -3.34.

Consider A40G G71C G74U C93U A98G, for which the “polymerase ribozyme fitness (log ratio)” value is at most -4.2.

A39U A60U G84U: the “polymerase ribozyme fitness (log ratio)” value was -3.96.

Turning to A40C C87G C105G, the “polymerase ribozyme fitness (log ratio)” value is -4.19.

Take A39C G86U A91C A150U: the “polymerase ribozyme fitness (log ratio)” value was at most -4.2.

As for A41C G50A A89U A113U A115G U146A, the “polymerase ribozyme fitness (log ratio)” value is -4.05.

Turning to C38U U55A C69G A115G A137G A142G, the “polymerase ribozyme fitness (log ratio)” value is at most -4.2.

On to C38U U56A G68A C95A, for which the “polymerase ribozyme fitness (log ratio)” value was at most -4.2.

For the variant A39U C54U A60U C75G C79A U90A, the “polymerase ribozyme fitness (log ratio)” value was at most -4.2.

Consider A40U A64G C75U A97G, for which the “polymerase ribozyme fitness (log ratio)” value is at most -4.2.

As to A41C A49C U77C G86C C96U U101G C118G, the “polymerase ribozyme fitness (log ratio)” value was at most -4.2.

In the case of A41C A52C, the “polymerase ribozyme fitness (log ratio)” value was -1.97.

As for A41C A66G G70A A91U C93U C96G, the “polymerase ribozyme fitness (log ratio)” value is at most -4.2.

Consider A41G C57A, for which the “polymerase ribozyme fitness (log ratio)” value amounted to 0.0695.

In the case of C38U C93A, the “polymerase ribozyme fitness (log ratio)” value is -2.86.

As to C38U G62C, the “polymerase ribozyme fitness (log ratio)” value is -2.41.

As to A40G G86U A120G, the “polymerase ribozyme fitness (log ratio)” value is -3.99.

For the variant A39C G50A G86A G94U G133A, the “polymerase ribozyme fitness (log ratio)” value is at most -4.2.

Turning to A39U G94U A122U G143A A147C, the “polymerase ribozyme fitness (log ratio)” value is at most -4.2.

As to A39C G65A A66C C85A G88C G140U, the “polymerase ribozyme fitness (log ratio)” value is at most -4.2.

With A41C G58C G59C A113C U145A, the “polymerase ribozyme fitness (log ratio)” value was -4.1.

For C38U U45G G68A G81U C87G A98G, the “polymerase ribozyme fitness (log ratio)” value is at most -4.2.

As for A39U U56A C116U, the “polymerase ribozyme fitness (log ratio)” value was -2.74.

In the case of A40U G92U A119G, the “polymerase ribozyme fitness (log ratio)” value was -0.619.

With A40U C96U C118U, the “polymerase ribozyme fitness (log ratio)” value was -0.191.

Consider A39U G70A G88A U127A U144A, for which the “polymerase ribozyme fitness (log ratio)” value is at most -4.2.

On to A41C C57A G92A C93A C105U A115C G124A U144A, for which the “polymerase ribozyme fitness (log ratio)” value is at most -4.2.

For the variant A40U A41C A60G A98U A150U, the “polymerase ribozyme fitness (log ratio)” value amounted to 0.591.

Take A40C A52C U53A A73U C76A G83C U102A: the “polymerase ribozyme fitness (log ratio)” value was at most -4.2.

Regarding A41C U56A G83U U127C G152A, the “polymerase ribozyme fitness (log ratio)” value was -4.07.

Turning to C38U G68C G88A A147C, the “polymerase ribozyme fitness (log ratio)” value is at most -4.2.

Regarding A41C A150U, the “polymerase ribozyme fitness (log ratio)” value was determined as 0.683.

Take A39C G48U G68C G80C C96U U101G A106U: the “polymerase ribozyme fitness (log ratio)” value was at most -4.2.

As to A40C C57A G68A G86U A121U, the “polymerase ribozyme fitness (log ratio)” value is at most -4.2.

Take A41C C79U C95U: the “polymerase ribozyme fitness (log ratio)” value is -3.78.

Turning to A39U U104G, the “polymerase ribozyme fitness (log ratio)” value is -3.71.

On to A40C G62U A97G C116G A122U, for which the “polymerase ribozyme fitness (log ratio)” value was -1.6.

A39U A89G: the “polymerase ribozyme fitness (log ratio)” value was -2.99.

A41G U56G G58U G81A G84A C116U C149U: the “polymerase ribozyme fitness (log ratio)” value was -1.86.

For A41G A52G U77G C87U G100C C103G A138G, the “polymerase ribozyme fitness (log ratio)” value was at most -4.2.

Take A41C A49C U56A G67C C76G C87A: the “polymerase ribozyme fitness (log ratio)” value is at most -4.2.

In the case of A40G A60C C105G A138C A147U, the “polymerase ribozyme fitness (log ratio)” value is at most -4.2.

In the case of A39G G58A U145G, the “polymerase ribozyme fitness (log ratio)” value is -1.12.

A40C C57G C85A U102A: the “polymerase ribozyme fitness (log ratio)” value was at most -4.2.

Take A41G G74C C75U C76A A91C G92U U134A G141C: the “polymerase ribozyme fitness (log ratio)” value is at most -4.2.

As for A41C U61G C79U G84C, the “polymerase ribozyme fitness (log ratio)” value was at most -4.2.

For the variant A40G G59A G68U, the “polymerase ribozyme fitness (log ratio)” value was at most -4.2.

A40U C103A U139G U146A: the “polymerase ribozyme fitness (log ratio)” value was -2.67.

Consider A40C A60U G81C A138G C149A, for which the “polymerase ribozyme fitness (log ratio)” value is at most -4.2.

For A40G U55A, the “polymerase ribozyme fitness (log ratio)” value is -2.

As for A40G U61C G92U U145G, the “polymerase ribozyme fitness (log ratio)” value was at most -4.2.

Regarding A39C U61A C87U G94U U101C A147U, the “polymerase ribozyme fitness (log ratio)” value was at most -4.2.

For A40C C54U A64U U78A G88C A150G, the “polymerase ribozyme fitness (log ratio)” value is at most -4.2.

On to A40C C87G G94U C95G C118G, for which the “polymerase ribozyme fitness (log ratio)” value was at most -4.2.

Turning to A40U G48C U53A U144G, the “polymerase ribozyme fitness (log ratio)” value was -2.19.

Take A40C U55A: the “polymerase ribozyme fitness (log ratio)” value came out at 0.494.

For A40C G59A C85A A89C, the “polymerase ribozyme fitness (log ratio)” value is -2.83.

With A40U G50C A91G U104A, the “polymerase ribozyme fitness (log ratio)” value was at most -4.2.

A39U U56A G62C C85A C95G U101A C123G G143C: the “polymerase ribozyme fitness (log ratio)” value was at most -4.2.

Take A40G U53A C54U U82G C87A A89G A137U A138U U145A: the “polymerase ribozyme fitness (log ratio)” value was at most -4.2.

On to A40U G117C, for which the “polymerase ribozyme fitness (log ratio)” value is -0.102.

As for A39G U56G A66U G86U A107C, the “polymerase ribozyme fitness (log ratio)” value was -3.99.

As to A41C G81A G92U G136U, the “polymerase ribozyme fitness (log ratio)” value was -3.13.

Consider C38U G58C G65A A119G A147C, for which the “polymerase ribozyme fitness (log ratio)” value was -2.82.

Consider A41C G42A G59C G68A C95U, for which the “polymerase ribozyme fitness (log ratio)” value was at most -4.2.

Regarding A41C C85U G112C, the “polymerase ribozyme fitness (log ratio)” value was -3.5.

On to A41G U53A U55A A91U C99A U148A, for which the “polymerase ribozyme fitness (log ratio)” value was at most -4.2.

In the case of A39U A138C A150G, the “polymerase ribozyme fitness (log ratio)” value was -4.1.
